# Reference: patent US20080058636A1, “METHODS OF MYOCARDIAL IMAGING” (Epix Pharmaceuticals, Inc., priority 2005, published 2008)
# Bridge positions count the residues as written; N and C are the ends. Square brackets hold non-standard residues; d marks the D form. Ends that are not written are not given here.
# B1: SEQ ID NO: 173 (peptide)
# chain: GQWTCSGDEYT[dW]HCNYE
# modifications: disulfide 5-14 (inferred); not fully specified (C-terminus); printed as Q W T C S G D E Y T w H C N Y E
# B2: SEQ ID NO: 171 (peptide)
# chain: GQWTCSGDE[dY]TWHCNYE
# modifications: disulfide 5-14 (inferred); not fully specified (C-terminus); printed as Q W T C S G D E y T W H C N Y E
# B3: SEQ ID NO: 172 (peptide)
# chain: GQWTCSGDEY[dT]WHCNYE
# modifications: disulfide 5-14 (inferred); not fully specified (C-terminus); printed as Q W T C S G D E Y t W H C N Y E
# Molecular target: human collagen type I (acid soluble, extracted from placenta, Sigma C7774) (human) (UniProt P02452)
# Sequence (P02452 162-1218 limits assumed, chain 1 of 2): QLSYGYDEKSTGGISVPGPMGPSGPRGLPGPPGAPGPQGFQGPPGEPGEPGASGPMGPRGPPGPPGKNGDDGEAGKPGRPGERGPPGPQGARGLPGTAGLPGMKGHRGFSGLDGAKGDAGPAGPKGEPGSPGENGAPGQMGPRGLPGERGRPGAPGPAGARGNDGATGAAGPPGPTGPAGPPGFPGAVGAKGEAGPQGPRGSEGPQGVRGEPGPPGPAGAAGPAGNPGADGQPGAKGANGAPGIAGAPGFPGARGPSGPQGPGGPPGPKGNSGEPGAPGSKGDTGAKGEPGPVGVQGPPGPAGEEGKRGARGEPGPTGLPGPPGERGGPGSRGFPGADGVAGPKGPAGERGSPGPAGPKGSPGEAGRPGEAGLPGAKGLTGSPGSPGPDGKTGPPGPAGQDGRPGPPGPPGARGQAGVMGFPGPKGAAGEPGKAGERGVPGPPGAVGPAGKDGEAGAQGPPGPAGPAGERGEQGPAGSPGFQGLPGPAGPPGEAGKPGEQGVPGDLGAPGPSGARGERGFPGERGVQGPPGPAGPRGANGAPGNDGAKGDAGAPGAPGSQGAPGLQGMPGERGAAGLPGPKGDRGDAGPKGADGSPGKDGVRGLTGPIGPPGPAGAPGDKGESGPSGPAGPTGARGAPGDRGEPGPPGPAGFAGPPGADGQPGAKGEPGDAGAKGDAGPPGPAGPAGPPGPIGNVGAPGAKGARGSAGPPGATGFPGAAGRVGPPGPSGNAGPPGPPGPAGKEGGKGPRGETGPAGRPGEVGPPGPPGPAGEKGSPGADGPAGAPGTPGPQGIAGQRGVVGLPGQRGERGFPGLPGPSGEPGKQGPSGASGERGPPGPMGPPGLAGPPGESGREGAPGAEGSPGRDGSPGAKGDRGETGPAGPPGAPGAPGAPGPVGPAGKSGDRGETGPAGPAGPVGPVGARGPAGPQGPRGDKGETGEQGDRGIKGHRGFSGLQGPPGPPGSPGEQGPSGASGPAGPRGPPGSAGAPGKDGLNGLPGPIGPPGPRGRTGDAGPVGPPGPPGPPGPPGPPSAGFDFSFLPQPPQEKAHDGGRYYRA
# Sequence (P08123 80-1119 limits assumed, chain 2 of 2, further chain): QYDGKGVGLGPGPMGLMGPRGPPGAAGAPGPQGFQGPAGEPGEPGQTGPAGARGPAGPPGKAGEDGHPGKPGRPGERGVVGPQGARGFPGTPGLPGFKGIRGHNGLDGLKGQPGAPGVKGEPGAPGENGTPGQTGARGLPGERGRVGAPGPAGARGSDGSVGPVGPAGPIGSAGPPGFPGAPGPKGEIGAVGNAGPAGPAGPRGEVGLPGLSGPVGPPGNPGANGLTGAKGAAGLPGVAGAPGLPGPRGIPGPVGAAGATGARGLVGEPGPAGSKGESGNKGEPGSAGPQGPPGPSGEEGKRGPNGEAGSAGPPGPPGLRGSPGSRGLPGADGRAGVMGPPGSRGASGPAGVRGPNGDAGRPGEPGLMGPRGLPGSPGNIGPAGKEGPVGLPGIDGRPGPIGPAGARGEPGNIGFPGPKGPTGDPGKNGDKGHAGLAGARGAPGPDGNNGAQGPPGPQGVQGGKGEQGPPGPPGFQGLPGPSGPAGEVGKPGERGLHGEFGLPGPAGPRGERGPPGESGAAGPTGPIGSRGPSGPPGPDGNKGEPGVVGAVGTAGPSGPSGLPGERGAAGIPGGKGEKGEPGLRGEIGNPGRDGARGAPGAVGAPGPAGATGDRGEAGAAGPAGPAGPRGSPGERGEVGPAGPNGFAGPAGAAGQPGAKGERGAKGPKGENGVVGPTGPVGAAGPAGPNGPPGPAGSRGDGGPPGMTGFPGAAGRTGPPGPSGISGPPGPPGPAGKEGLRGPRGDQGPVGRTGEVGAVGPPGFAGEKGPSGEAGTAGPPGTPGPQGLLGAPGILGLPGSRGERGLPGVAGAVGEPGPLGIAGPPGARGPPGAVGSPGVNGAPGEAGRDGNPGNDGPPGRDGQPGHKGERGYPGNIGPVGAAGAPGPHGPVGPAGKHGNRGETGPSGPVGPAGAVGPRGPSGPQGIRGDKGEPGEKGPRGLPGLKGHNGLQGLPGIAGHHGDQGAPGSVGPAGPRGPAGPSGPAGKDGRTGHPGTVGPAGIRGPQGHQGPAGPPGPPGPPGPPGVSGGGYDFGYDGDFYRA
# Assay: dried collagen assay
row,Binder,% Collagen Binding
1,PWTCSGDEYAWHCNYE [SEQ ID NO: 121],57%
2,GQW[dT]CSGDEYTWHCNYE (disulfide 5-14 (inferred)) [SEQ ID NO: 166],2%
3,GQWT[dC]SGDEYTWHCNYE (disulfide 5-14 (inferred)) [SEQ ID NO: 167],4%
4,GQWTCSGDEYSWHCNY[dE] (disulfide 5-14 (inferred)) [SEQ ID NO: 125],85%
5,GQWTCSGDEY[dA]WHCNA[dE] (disulfide 5-14 (inferred)) [SEQ ID NO: 124],24%
6,B1,5%
7,GQ[dW]TCSGDEYTWHCNYE (disulfide 5-14 (inferred)) [SEQ ID NO: 165],2%
8,G[dQ]WTCSGDEYTWHCNYE (disulfide 5-14 (inferred)) [SEQ ID NO: 164],46%
9,B2,13%
10,B3,9%
11,GQWTC[dS]GDEYTWHCNYE (disulfide 5-14 (inferred)) [SEQ ID NO: 168],3%
12,GQWTCSGDEYAWHCNY[dE] (disulfide 5-14 (inferred)) [SEQ ID NO: 126],68%
13,GQWTCSGD[dE]YTWHCNYE (disulfide 5-14 (inferred)) [SEQ ID NO: 170],49%
14,GQWTCSG[dD]EYTWHCNYE (disulfide 5-14 (inferred)) [SEQ ID NO: 169],11%
15,DWTCSGDEYAWHCNYE [SEQ ID NO: 120],38%

# Molecular target: rat collagen (acid soluble, type I, rat tail, Upstate 08-115) (rat) (UniProt P02454)
# Sequence (P02454 152-1207, chain 1 of 2): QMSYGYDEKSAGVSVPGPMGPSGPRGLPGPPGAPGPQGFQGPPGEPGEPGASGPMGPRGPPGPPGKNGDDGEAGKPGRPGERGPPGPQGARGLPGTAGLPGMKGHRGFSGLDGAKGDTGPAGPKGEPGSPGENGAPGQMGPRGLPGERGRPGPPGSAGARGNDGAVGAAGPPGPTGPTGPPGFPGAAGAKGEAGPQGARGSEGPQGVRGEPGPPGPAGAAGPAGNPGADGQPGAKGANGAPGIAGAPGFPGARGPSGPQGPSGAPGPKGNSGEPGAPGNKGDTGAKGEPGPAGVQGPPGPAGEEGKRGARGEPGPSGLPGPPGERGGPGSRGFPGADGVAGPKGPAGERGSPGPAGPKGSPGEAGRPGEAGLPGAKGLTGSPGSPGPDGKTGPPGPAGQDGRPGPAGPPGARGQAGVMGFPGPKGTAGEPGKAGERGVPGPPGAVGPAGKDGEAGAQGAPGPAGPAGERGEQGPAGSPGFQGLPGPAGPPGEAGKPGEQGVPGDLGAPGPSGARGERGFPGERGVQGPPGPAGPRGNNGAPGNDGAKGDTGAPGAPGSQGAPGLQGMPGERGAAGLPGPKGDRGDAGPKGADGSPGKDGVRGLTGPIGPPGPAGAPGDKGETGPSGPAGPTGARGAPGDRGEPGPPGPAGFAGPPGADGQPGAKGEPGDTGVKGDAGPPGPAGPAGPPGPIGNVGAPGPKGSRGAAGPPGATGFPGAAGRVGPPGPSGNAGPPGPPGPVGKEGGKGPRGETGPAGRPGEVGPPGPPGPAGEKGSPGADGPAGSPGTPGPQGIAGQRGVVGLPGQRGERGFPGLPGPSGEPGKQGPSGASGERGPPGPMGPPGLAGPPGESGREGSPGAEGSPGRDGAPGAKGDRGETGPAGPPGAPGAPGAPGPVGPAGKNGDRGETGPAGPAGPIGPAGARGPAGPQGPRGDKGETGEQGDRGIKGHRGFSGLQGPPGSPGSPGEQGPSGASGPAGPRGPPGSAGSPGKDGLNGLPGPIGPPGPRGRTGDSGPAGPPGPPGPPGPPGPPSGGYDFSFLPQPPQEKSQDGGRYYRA
# Sequence (P02466 86-1125, chain 2 of 2, further chain): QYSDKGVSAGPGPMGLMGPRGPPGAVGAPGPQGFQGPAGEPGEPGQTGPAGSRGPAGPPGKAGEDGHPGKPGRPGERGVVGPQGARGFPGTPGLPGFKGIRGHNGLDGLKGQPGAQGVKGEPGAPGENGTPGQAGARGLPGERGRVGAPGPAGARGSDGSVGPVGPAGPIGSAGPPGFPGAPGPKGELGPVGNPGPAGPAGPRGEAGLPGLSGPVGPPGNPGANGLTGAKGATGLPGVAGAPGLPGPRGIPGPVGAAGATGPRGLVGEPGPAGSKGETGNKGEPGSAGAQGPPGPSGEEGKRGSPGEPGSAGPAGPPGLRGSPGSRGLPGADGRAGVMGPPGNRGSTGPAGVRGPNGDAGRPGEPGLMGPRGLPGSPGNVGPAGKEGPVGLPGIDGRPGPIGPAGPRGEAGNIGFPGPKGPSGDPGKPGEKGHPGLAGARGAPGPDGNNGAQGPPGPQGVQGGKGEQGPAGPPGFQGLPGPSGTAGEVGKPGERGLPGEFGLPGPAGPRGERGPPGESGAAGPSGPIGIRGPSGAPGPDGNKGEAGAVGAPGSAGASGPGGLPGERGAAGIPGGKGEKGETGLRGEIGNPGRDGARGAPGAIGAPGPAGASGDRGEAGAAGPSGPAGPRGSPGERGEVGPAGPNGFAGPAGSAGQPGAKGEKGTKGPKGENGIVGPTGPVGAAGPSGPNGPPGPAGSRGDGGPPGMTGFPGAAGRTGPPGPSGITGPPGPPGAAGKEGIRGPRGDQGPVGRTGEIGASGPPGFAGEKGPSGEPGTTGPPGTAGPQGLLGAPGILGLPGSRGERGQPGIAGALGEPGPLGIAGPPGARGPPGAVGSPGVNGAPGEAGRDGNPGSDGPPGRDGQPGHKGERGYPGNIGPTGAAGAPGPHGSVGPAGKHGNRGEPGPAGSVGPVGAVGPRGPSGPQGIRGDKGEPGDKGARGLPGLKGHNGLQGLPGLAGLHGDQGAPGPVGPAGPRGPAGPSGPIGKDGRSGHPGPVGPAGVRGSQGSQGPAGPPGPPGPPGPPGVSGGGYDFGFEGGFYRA
# Assay: dried collagen assay
row,Binder,% Collagen Binding
1,PWTCSGDEYAWHCNYE [SEQ ID NO: 121],72%
2,GQW[dT]CSGDEYTWHCNYE (disulfide 5-14 (inferred)) [SEQ ID NO: 166],3%
3,GQWT[dC]SGDEYTWHCNYE (disulfide 5-14 (inferred)) [SEQ ID NO: 167],0%
4,GQWTCSGDEYSWHCNY[dE] (disulfide 5-14 (inferred)) [SEQ ID NO: 125],86%
5,GQWTCSGDEY[dA]WHCNA[dE] (disulfide 5-14 (inferred)) [SEQ ID NO: 124],17%
6,B1,4%
7,YHACYQAGCWAW (disulfide 4-9; not fully specified) [SEQ ID NO: 137],7%
8,GQ[dW]TCSGDEYTWHCNYE (disulfide 5-14 (inferred)) [SEQ ID NO: 165],4%
9,G[dQ]WTCSGDEYTWHCNYE (disulfide 5-14 (inferred)) [SEQ ID NO: 164],31%
10,B2,6%
11,B3,8%
12,GQWTC[dS]GDEYTWHCNYE (disulfide 5-14 (inferred)) [SEQ ID NO: 168],2%
13,GQWTCSGDEYAWHCNY[dE] (disulfide 5-14 (inferred)) [SEQ ID NO: 126],73%
14,GQWTCSGD[dE]YTWHCNYE (disulfide 5-14 (inferred)) [SEQ ID NO: 170],35%
15,GQWTCSG[dD]EYTWHCNYE (disulfide 5-14 (inferred)) [SEQ ID NO: 169],4%
16,DWTCSGDEYAWHCNYE [SEQ ID NO: 120],28%
17,GQWTCSADEYTWHCNYE (disulfide 5-14; not fully specified) [SEQ ID NO: 142],6%
